According to patent US20050249698A1 (priority 2002, published 2005):

Experiments:
Format in all cases: in vivo, Balb/c mice
normal mice [1] = experiment: Test 1: peripheral blood cell counts, sOGP for 5 days then sOGP and rhG-CSF co-administered
Procedure: (§1) The clean grade of the Balb/c mice, weighed from 16 to 18 g, were used and randomly grouped, 7-10 mice per group. The tests were carried out in two batches.
(§2) The mice were divided into 4 groups.
(§3) The mice in each group were sacrificed on the 14th day.
(§4) The detection indexes were as follows: • (1) The counts of the peripheral blood leucocytes (WBC), the peripheral blood lymphocytes (LY), red blood cells (RBCs) and the change of platelet were determined for each group on the first day (no drug was administered), the 5th, 8th, 10th, 12th and 14th day. • (2) The counts of marrow karyotes (BMNC) of the mice in each group and the change of the classification of the marrow were determined on the 14th day. • (3) The sections of the sternum of the mice in each group were determined on the 14th day. • (4) The weights of the spleens of the mice in each group and the sections of the […] were determined on the 14th day.

normal mice [2] = experiment: Test 1: marrow karyote count and classification of the thighbone; details: 14th day, x±SE
Procedure: as §1, §2, §3, §4

normal mice [3] = experiment: Test 1: pathologic observation of breastbone (sternum) sections; details: 14th day, Test 1, FIG. 3
Procedure: as §1, §2, §3, §4

normal mice [4] = experiment: Test 1: spleen weight
Procedure: as §1, §2, §3, §4

normal mice [5] = experiment: Test 1: pathologic observation of spleen sections; details: 14th day, Test 1, FIG. 4
Procedure: as §1, §2, §3, §4

normal mice [6] = experiment: Test 2: marrow karyote count of the thighbone; details: 11th day, Test 2, simultaneous administration; x±SE
Procedure: as §1, §2
(§5) The mice in each group were sacrificed on the eleventh day.
(§6) The detection indexes were as follows: • (1) The counts of the peripheral blood leucocytes of the mice in each group were determined on the first day (no drug was administered), the 3rd, 5th, 7th, 9th and 11th day. • (2) The counts of marrow karyotes (BMNC) of the mice in each group were determined on the 11th day. • (3) The weights of the spleens of the mice in each group were determined on the 11th day.

normal mice [7] = experiment: Test 2: spleen weight
Procedure: as §1, §2, §5, §6

[8] = Test 1, sOGP 5 days then co-administration, x±SE

B1: rhG-CSF: commercially available recombinant human granulocyte colony stimulating factor (protein, UniProt P09919 31-207, looked up)
Granulocyte …: TPLGPASSLPQSFLLKCLEQVRKIQGDGAALQEKLVSECATYKLCHPEELVLLGHSLGIPWAPLSSCPSQALQLAGCLSQLHSGLFLYQGLLQALEGISPELGPTLDTLQLDVADFATTIWQQMEELGMAPALQPTQGAMPAFASAFQRRAGGVLVASHLQSFLEVSYRVLRHLAQP
% leucocyte granulocyte (normal mice [1]; [8]): 70.39 ± 1.54%
% leucocyte lymphocyte (normal mice [1]; [8]): 29.61 ± 1.54%
leucocyte (normal mice [1]; Test 1, x±SE): 17.59 ± 1.59 ×10^6/ml
platelet (normal mice [1]; Test 1, x±SE): 505.43 ± 35.34 ×10^6/ml
red blood cell (normal mice [1]; Test 1, x±SE): 6.68 ± 0.10 ×10^9/ml
karyote/thighbone (normal mice [2]): 1.90 ± 0.13 ×10^7
marrow: early erythroblast (normal mice [2]; thighbone marrow): 2.50 ± 0.33%
marrow: intermediate erythroblast (normal mice [2]; thighbone marrow): 12.13 ± 1.92%
marrow: late erythroblast (normal mice [2]; thighbone marrow): 16.00 ± 2.11%
marrow: lymphocyte, plasma cell (normal mice [2]; thighbone marrow): 19.38 ± 2.00%
marrow: matured granulocyte (normal mice [2]; thighbone marrow): 30.83 ± 2.77%
marrow: myelocyte, metamyelocyte (normal mice [2]; thighbone marrow): 11.00 ± 1.00%
marrow: primitive granulocyte (normal mice [2]; thighbone marrow): 0.63 ± 0.36%
marrow: promyelocyte (normal mice [2]; thighbone marrow): 1.88 ± 0.44%
pathologic observation of bone marrow cells in breastbone section (normal mice [3]): the proliferation of the bone marrow cells and the ratios among the three cell lines were normal
spleen weight (normal mice [4]; 14th day, Test 1, x±SE): 0.252 ± 0.007 g
spleen weight compared with the other two groups (control, sOGP) (normal mice [4]; Test 1, Table 3): significantly higher
spleen section: matured granulocytes as share of the granulocytes (normal mice [5]): about 60%
spleen section: megakaryocyte cell line (normal mice [5]): moderately proliferated
spleen section: red matter (normal mice [5]): proliferated moderately
spleen section: white matter (normal mice [5]): lightly to moderately shrunk
karyote number/thighbone (normal mice [6]): 1.75 ± 0.12 ×10^7
spleen weight (normal mice [7]; 11th day, Test 2, simultaneous administration, x±SE): 0.244 ± 0.017 g
spleen weight compared with the other two groups (control, sOGP) (normal mice [7]; Test 2, Table 5): significantly higher
